B1: VTVGAVGVGK polypeptide (KRAS; SEQ ID NO: 4) (peptide)
peptide: VTVGAVGVGK
notes: Synthesized mutant KRAS neoantigen peptide; also called core polypeptide
B2: VTVGAAGVGK polypeptide (KRAS; SEQ ID NO: 5) (peptide)
peptide: VTVGAAGVGK
notes: as for B1
B3: VSVGAVGVGK polypeptide (KRAS; SEQ ID NO: 6) (peptide)
peptide: VSVGAVGVGK
notes: as for B1
B4: VTVGADGVGK polypeptide (KRAS; SEQ ID NO: 1) (peptide)
peptide: VTVGADGVGK
notes: as for B1
B5: VTGAVGVGK polypeptide (KRAS; SEQ ID NO: 3) (peptide)
peptide: VTGAVGVGK
notes: Synthesized mutant KRAS neoantigen peptide, printed as a 9-mer; also called core polypeptide

Target: T1, HLA-A*11:01 (MHC-I molecules on the surfaces of T2 cells) (human)
T1 construct: It only names the antibody against 'the corresponding HLA typing (HLA-A*11:01)'; also called HLA molecules
Assay: T2 cell MHC-I stabilisation assay, flow cytometry with FITC anti-HLA-A*11:01 antibody
Description: The synthesized polypeptides were added to 2*10⁵ T2 cells, and human β2 micro-globulin (final concentration of 3 μg/ml) was added and cultivated in 24-well plate. The plate was cultured in an incubator (37° C., 5% CO₂) overnight.
200 g of cultured cells was centrifuged for 5 minutes to collect the cells. After washing twice with PBS, the cells were directly incubated with FITC-labeled monoclonal antibody against the corresponding HLA typing (HLA-A*11:01), and maintained at 4° C. for 30 minutes.

Row | Binder | FI (fluorescence index)
1 | B1 | 2.02
2 | B2 | 2.12
3 | B3 | 2.42
4 | B4 | 2.83
5 | B5 | 2.37
